This note sets out measurements from patent publication US20230144876A1 (UNIVERSITY OF KITAKYUSHU, published 2023).

The assay deals with T1, MHC-1 (MHC class I molecules) on murine dendritic cell line DC2.4 cells (mouse, UniProt P01887 21-119; P01901 22-369).
T1 construct: whole, on cells; also called H-2Kb
T1 sequence (MHC heavy, looked up): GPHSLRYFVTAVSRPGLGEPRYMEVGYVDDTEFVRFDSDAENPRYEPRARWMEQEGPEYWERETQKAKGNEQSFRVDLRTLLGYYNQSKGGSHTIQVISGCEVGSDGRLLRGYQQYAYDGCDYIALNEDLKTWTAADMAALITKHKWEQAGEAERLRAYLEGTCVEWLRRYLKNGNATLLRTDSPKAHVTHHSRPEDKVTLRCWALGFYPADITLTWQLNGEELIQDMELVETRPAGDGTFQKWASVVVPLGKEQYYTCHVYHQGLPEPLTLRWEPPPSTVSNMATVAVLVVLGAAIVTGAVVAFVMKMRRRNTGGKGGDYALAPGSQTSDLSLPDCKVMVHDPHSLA
T1 sequence (b2m, looked up): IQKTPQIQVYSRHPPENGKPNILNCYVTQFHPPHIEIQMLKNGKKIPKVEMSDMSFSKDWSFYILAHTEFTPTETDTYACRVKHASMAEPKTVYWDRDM
Nature of the assay: competitive inhibition of OVA peptide 1 binding to MHC-1 on DC2.4 cells, flow cytometry. Here is the method:
Murine dendritic cell line, DC2.4 cells, were detached from a dish, and suspended in 1.5 mL tubes at a concentration of 1.5×10⁵ cells per […] of PBS.
(In general: A flow cytometer gives signals particle by particle.)

B1: C-TRP2-9 (cysteine added to the N-terminus of residues 180 to 188 of mTRP2) (peptide)
peptide: CSVYDFFVWL
notes: 10-mer; N-terminal Cys plus mTRP2 180-188; Free peptide in the assay
Take B1: the binding result is on record as “no binding (tested: 2.5 µg/mL)”.
